# Data as given in publication PMC9177957 (Nucleic Acids Research, 2022).
# B1: GST-tagged full-length human ANP32A (natural protein)
# chain: MEMGRRIHLELRNRTPSDVKELVLDNSRSNEGKLEGLTDEFEELEFLSTINVGLTSIANLPKLNKLKKLELSDNRVSGGLEVLAEKCPNLTHLNLSGNKIKDLSTIEPLKKLENLKSLDLFNCEVTNLNDYRENVFKLLPQLTYLDGYDRDDKEAPDSDAEGYVEGLDDEEEDEDEEEYDEDAQVVEDEEDEDEEEEGEEEDVSGEEEEDEEGYNDGEVDDEEDEEELGEEERGQKRKREPEDEGEDDD
# notes: also called GST-huANP32A; huANP32A WT; source: E. coli, purified (Glutathione Sepharose, eluted with reduced glutathione); not shown: GST, N-terminal, kept
# B2: GST-tagged full-length human ANP32B (natural protein)
# chain: MDMKRRIHLELRNRTPAAVRELVLDNCKSNDGKIEGLTAEFVNLEFLSLINVGLISVSNLPKLPKLKKLELSENRIFGGLDMLAEKLPNLTHLNLSGNKLKDISTLEPLKKLECLKSLDLFNCEVTNLNDYRESVFKLLPQLTYLDGYDREDQEAPDSDAEVDGVDEEEEDEEGEDEEDEDDEDGEEEEFDEEDDEDEDVEGDEDDDEVSEEEEEFGLDEEDEDEDEDEEEEEGGKGEKRKRETDDEGEDD
# notes: also called GST-huANP32B; huANP32B WT; source: E. coli, purified (Glutathione Sepharose, eluted with reduced glutathione); not shown: GST, N-terminal, kept
# Target: T1, wildtype NP of influenza A/NT/60/1968 (H3N2) virus (influenza A/NT/60/1968 (H3N2) virus, UniProt P03467 1-498)
# T1 construct: not shown: GST, N-terminal, cleaved
# Assay: pull-down
# Conditions: both partners purified
row,Binder,binding result
1,B1,binds
2,B2,binds
